According to paper PMC10691782 (Cellular immunology, 2022):

What was measured:
[1] = biological target: BAFF in human plasma (human (endogenous in plasma)); assay: SEC
[2] = biological target: Recombinant BAFF 3-mer (Flag-tagged BAFF amino acid 134-285) (human, UniProt Q9Y275-1 134-285); assay: SPR
[3] = biological target: Recombinant BAFF 60-mer (histidine-tagged BAFF amino acid 134-285) (human, UniProt Q9Y275-1 134-285); assay: SPR
[4] = biological target: BAFF 60-mer:mBaffR-Fc complex (human | murine, UniProt Q9Y275-1 134-285; Q9D8D0 1-71); assay: ELISA

## BAFF in human plasma (natural protein)
[1]
  stoichiometry N: 3

B1: mBaffR-Fc (murine BR3 ecto-domain fused to murine IgG1 Fc fragment) (Fc fusion, UniProt Q9D8D0 1-71, looked up)
chain: MGARRLRVRSQRSRDSSVPTQCNQTECFDPLVRNCVSCELFHTPDTGHTSSLEPGTALQPQEGSALRPDVA
[2]
  binding result: binds
[3]
  binding result: binds

B2: Murine TACI-Fc (Fc fusion, UniProt Q9ET35 1-128, looked up)
chain: MAMAFCPKDQYWDSSRKSCVSCALTCSQRSQRTCTDFCKFINCRKEQGRYYDHLLGACVSCDSTCTQHPQQCAHFCEKRPRSQANLQPELGRPQAGEVEVRSDNSGRHQGSEHGPGLRLSSDQLTLYC
modifications: biotin (EZ-Link Sulfo-NHS-Biotin), in the ELISA only
[4]
  binding result: binds

## MAQQCFHSEYFDSLLHACKPCHLRCSNPPATCQPYCDPSVTSSVKGTYT (Fc fusion, UniProt O88472 1-49, looked up, not fully specified; biotin (EZ-Link Sulfo-NHS-Biotin), in the ELISA only) [Murine BCMA-Fc]
[4]
  binding result: binds
